This note sets out measurements from US20160000891A1.

The target of this assay is PF-4 in cynomolgus plasma (cynomolgus). In words: aligned sandwich ELISA, cynomolgus plasma. On the technique in general: ELISA stands for enzyme-linked immunosorbent assay.

As to “monoclonal anti-HPF4 antibody (Abcam cat. no.: ab49735)”, the AUC Ratio (vs anti-HPF4) was determined as 1 and the anti-HPF4 AUC mean is 2.79.
